Assay results taken from the supplement of paper PMC9170038.

System: MS2 coat protein
Test: apparent KD of MS2 coat protein; designed switch direction (-1 OFF switch, 1 ON switch): -1; higher = weaker reporter binding
Outline: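 Designed RNA switches sharing common flanks were transcribed on Illumina chips by stalled E. coli RNA polymerase. They were titrated with SNAP-549-labelled MS2 coat protein, from 0.7 or 1.5 nM doubling to 3 µM, in Tris-HCl pH 7.5 buffer with KCl, MgCl2, BSA, DTT, tRNA and Tween-20. Titrations ran without input, with 200 uM small-molecule ligand, or with an oligonucleotide input. The apparent KD of each design is the median over its clusters, after curve-fitting of normalised cluster fluorescence.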

[1] = Eterna round: R95, input ligand: FMN 200 uM
[2] = Eterna round: R95, input ligand: microRNA oligo, concentration not stated
[3] = Eterna round: R95, input ligand: none
[4] = input ligand: microRNA oligo, concentration not stated

Sequence	apparent KD of MS2 coat protein [1] [nM]	apparent KD of MS2 coat protein [2] [nM]	apparent KD of MS2 coat protein [3] [nM]	apparent KD of MS2 coat protein (input ligand: FMN 200 uM) [nM]	apparent KD of MS2 coat protein [4] [nM]	apparent KD of MS2 coat protein (input ligand: none) [nM]
GAUUGACAUGAGGAUCACCCAUGUGAGGAUAUCGGCUGGUACGUGUUGGCUUGCCUCUCGAGAAGGCGCAUAGG [Exclusion 1 V55] (puzzle: Exclusion 1)	140	38.5	63.1	–	–	–
AGUACUAUCGCGAAAGCGAUAGUACAAAAAGCAAGUGAAACAUGAGGAUCACCCAUGUCCUCAUUUGCUCGUCUUAU [Mat - Sensor v2 -ver2- JL mod - D89] (Eterna round: R96, puzzle: Sensor v2, turn-off variant 2)	–	–	–	12.1	390	14.3
CGUACUGAAGUGAGGAUAUUGUCUCGGAUACGAAACAAGAAGGCACAUGAGGAUCACCCAUGUUGACAGUACGA [Malc #30 mod 7] (puzzle: Brourd's mod of Exclusion 4)	–	15	–	–	–	–
UUUUUAUAUGAAGGAUAUACUUAACAUGAGGAUCACCCAUGUGGUGUUGUGAGUGAGUGAGUUUAGUAGAAGGUCAAUUAGUUU [JMF's solution 12] (Eterna round: R96, puzzle: Exclusion NG 2)	–	–	–	363	157	209
GUCAUCACACAUGGGAUCAACAUGAGGAUCACCCAUGUUGCCAAGUUUUUUGCACGUCUUAUAAUACGUUUGAUGAG [Mod-Jxe] (Eterna round: R97, puzzle: Sensor, turn-off variant 1)	–	–	–	31.7	–	29.9
AGGUGCUUCAGGAGACAUGAGGAUCACCCAUGUUGAGUUAGCGAGGAUAUCGGUAACCAUUGUGAUGAGAAGGCGCAAACCAGA [Ex NG3 #44] (Eterna round: R96, puzzle: Exclusion NG 3)	–	–	–	60.5	15.6	47.3
GCAGGUUAAGUCAGGAUAUACCUAUGGAUACAUAGGUAGAAGGGACAUGAGGAUCACCCAUGUUUCUCAUCUGC [Mod of Eli 2 - Jieux - Brourd's mod of Exclusion 4] (Eterna round: R97, puzzle: Brourd's mod of Exclusion 4)	–	–	–	61.5	–	21.7
CGUUCGCGAGGAUAUGCAUUCGAGUCCAUUACGUGUCUGGGACUUGAGGAUCACCCAAGUAGAAGGCGUCUCAC [salish99_ex2_r4_646] (Eterna round: R97, puzzle: Exclusion 2)	–	–	–	135	–	154
AUAAUGUAAGGAUAUCAGUCGUACAGCCUCGGCUGUACGACUGAGAAGGUACAUGAGGAUCACCCAUGUGGUCA [E4/9-A2] (Eterna round: R97, puzzle: Exclusion 4)	–	–	–	103	–	1040
GGAUCGAGUGUGAGGAUAUACCUAUGGAAACAUAGGUAGAAGGCACAUGAGGAUCACCCAUGUUCCUACGGUCC [Mat - Exclusion 4 - Eli Mod - D8] (Eterna round: R97, puzzle: Brourd's mod of Exclusion 4)	–	–	–	658	–	75.5
ACAUGAGGAUCACCCAUGUAAUGAAGGGUACUAUACUAAACGUAGGAUAUCGAUGUAAGAUUGUACGAGAAGGACGAUUGCCUU [JR_ExcNG3_Sub051] (Eterna round: R96, puzzle: Exclusion NG 3)	–	–	–	–	29.3	–
ACAUGUUGCGCAGGAUAUGGGACACAUGAGGAUCACCCAUGUGGUUUCAUGUCUAACCAAGCGUCCCAGAAGGGCGUGAACAUG [Ex NG2 #30] (Eterna round: R96, puzzle: Exclusion NG 2)	–	–	–	41.8	20.8	19.9
AUUAUAAUAUAGGAUAUCGAAAUAAUUAUUUAACGAGAAGGAUGAACAUGAGGAUCACCCAUGUGGUAUCAUGG [Mat - Exclusion 6 - JL Mod - D33] (puzzle: Exclusion 6)	160	360	224	–	–	–
GCAGCUAGUUCAGGAUAUCAGCACGUGUAGUGCUGAGAAGGGAACAUGAGGAUCACCCAUGUGAUCAAUGCUGCAAUUUUAAUU [ENG1/12-A3] (Eterna round: R96, puzzle: Exclusion NG 1)	–	–	–	780	461	2260
GGUCAGCUAGGAUAUACAUGAGGAUCACCCAUGUACUGACCCAUGCGGGAAUCCGCGUGUAGAAGGAGCAAAAG [jl-ex3-4.60 ViennaUCT mod] (Eterna round: R97, puzzle: Exclusion 3)	–	–	–	33	–	32.5
ACAAGCUUUUUGCUCGGGUACAUGAGGAUCACCCAUGUUUGGGUUUAUUGAGGUUGUGUUGUCGUGCGCUGCAGGUU [JR_SV3TOV1_Sub076] (puzzle: Sensor v3, turn-off variant 1)	165	416	232	–	–	–
AGUCGGCGAGGAUAUACAUGAGGAUCACCCAUGUGAGAUAGUGCACGCGUACGUGUACGUAGAAGGCGCUGACA [Mat - Exclusion 3 - Mod of JL D94] (puzzle: Exclusion 3)	–	11.1	–	–	–	–
UAUUUAUAUGAAGGAUAUACUUAACAUGAGGAUCACCCAUGUGGUGUUGUGAGUGAGUGAGUUUAGUAGAAGGUCAAUUCUUUU [JMF's solution 96] (Eterna round: R96, puzzle: Exclusion NG 2)	–	–	–	893	415	448
GCAAGCUUUUUCAAUAAGAACAUGAGGAUCACCCAUGUUUAAGGUAUUACUUUUGGGCUCUUUAGUGCUCGUCUUAU [JR_STOV1_Sub035] (Eterna round: R97, puzzle: Sensor, turn-off variant 1)	–	–	–	17.9	–	18.2
CGAUGAGGAGUGAGGAUAUCGUGUUCGAAAGAACGUGAGAAGGCACAUGAGGAUCACCCAUGUGAUACUUGUCG [Omei Ex4B A15] (Eterna round: R97, puzzle: Brourd's mod of Exclusion 4)	–	–	–	60.9	–	19.6
GAAAGGGUAGGAUAUACGAAAAAAAAGGGUAGAAAAAAAACACAUGAGGAUCACCCAUGUAGAAGGACCAAAAG [salish99_ex2_r3_033] (puzzle: Exclusion 2)	40.2	30.9	27.2	–	–	–
GGGCAAUUAGGAUAUACAUGAGGAUCACCCAUGUGGAAGCCCGGACAGGUAAUCCACUGUAGAAGGGAUUGCCA [Anareor] (puzzle: Exclusion 3)	–	10.7	–	–	–	–
